The results in this text go back to patent EP1313853B1.

The assay has as its target Fas (Apo-1, CD95) (human) (UniProt P25445). The assay is described as follows: cell-based or functional assay.
Chain of UniProt P25445 (P25445 26-335): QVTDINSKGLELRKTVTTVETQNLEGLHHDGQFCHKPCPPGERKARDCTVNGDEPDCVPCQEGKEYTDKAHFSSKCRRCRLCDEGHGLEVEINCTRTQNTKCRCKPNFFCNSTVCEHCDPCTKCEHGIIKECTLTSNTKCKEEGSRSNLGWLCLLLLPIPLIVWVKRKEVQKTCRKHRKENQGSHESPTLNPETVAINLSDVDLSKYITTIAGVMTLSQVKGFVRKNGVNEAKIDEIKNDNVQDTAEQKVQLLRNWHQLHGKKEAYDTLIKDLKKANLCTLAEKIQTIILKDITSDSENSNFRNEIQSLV

In the case of “agonistic anti-Fas monoclonal antibodies (clone CH-11: Coulter-Immunotech, Marseille, France) (antibody)”, the % INHIBITION of Jurkat human leukemia T cell proliferation (MTT), 0.02 µg/ml antibody, no sequence is 16%; the % INHIBITION of Jurkat human leukemia T cell proliferation (MTT), 0.2 µg/ml antibody, no sequence was determined as 33%; the % INHIBITION of UMUC-3 bladder cancer cell proliferation (MTT), 0.02 µg/ml antibody, no sequence was determined as 7%; the % INHIBITION of UMUC-3 bladder cancer cell proliferation (MTT), 0.2 µg/ml antibody, no sequence worked out at 17%.
